Positions count from the first letter of the chain named. In names and notes the source's numbering stands. Where two headings read alike, the source gives them in different places. One block for each molecule: values may come before it.
Experiments:
hexYme1p (S. cerevisiae) [1] = molecular target: T1, hexYme1p (S. cerevisiae) (UniProt P32795)
T1 sequence: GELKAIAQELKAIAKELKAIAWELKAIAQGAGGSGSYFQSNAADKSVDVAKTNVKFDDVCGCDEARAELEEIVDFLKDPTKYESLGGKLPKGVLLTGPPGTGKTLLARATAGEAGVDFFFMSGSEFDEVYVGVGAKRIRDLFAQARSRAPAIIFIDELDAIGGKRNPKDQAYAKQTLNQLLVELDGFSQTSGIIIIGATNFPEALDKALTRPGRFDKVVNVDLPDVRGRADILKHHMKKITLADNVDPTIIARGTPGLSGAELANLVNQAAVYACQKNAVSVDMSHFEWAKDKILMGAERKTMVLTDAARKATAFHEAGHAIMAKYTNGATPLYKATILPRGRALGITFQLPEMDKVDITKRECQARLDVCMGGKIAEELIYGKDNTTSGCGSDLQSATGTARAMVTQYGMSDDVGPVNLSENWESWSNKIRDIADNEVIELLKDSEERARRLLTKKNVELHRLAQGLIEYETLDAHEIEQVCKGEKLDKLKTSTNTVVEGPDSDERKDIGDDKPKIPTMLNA

hexYme1p (S. cerevisiae) [2] = molecular target: T1, hexYme1p (S. cerevisiae); remark: listed apart in the source
SEC = molecular target: the molecule itself; experiment: SEC

Molecule: T9-λcI^N (from UniProt O74700 1-8)
initial rate of degradation of 20 μM substrate by hexYme1p (min^−1 enz6^−1) (hexYme1p (S. cerevisiae) [1]): 0.03

B1: Tim13^3–7A (natural protein)
chain: MGAAAAAGGGAPSQQKEAATTAKTTPNPIAKELKNQIAQELAVANATELVNKISENCFEKCLTSPYATRNDACIDQCLAKYMRSWNVISKAYISRIQNASASGEI
initial rate of degradation by hexYme1p, without DTT (min^−1 enz6^−1) (hexYme1p (S. cerevisiae) [1]): 0.05

B2: Tim9^D2F (natural protein)
chain: MFALNSKEQQEFQKVVEQKQMKDFMRLYSNLVERCFTDCVNDFTTSKLTNKEQTCIMKCSEKFLKHSERVGQRFQEQNAALGQGLGR
initial rate of degradation by hexYme1p, without DTT (min^−1 enz6^−1) (hexYme1p (S. cerevisiae) [2]): 0.16

B4: Tim10^F-alone (natural protein)
chain: MAFAAFAGGQPQLSSQQKIQAAEAELDLVTDMFNKLVNNCYKKCINTSYSEGELNKNESSCLDRCVAKYFETNVQVGENMQKMGQSFNAAGKF
initial rate of degradation by hexYme1p (min^−1 enz6^−1) (hexYme1p (S. cerevisiae) [2]): 0.43

B5: Tim10^F3A/F6A (natural protein)
chain: B4 chain with A2S, F3A, A4L, A5G, F6A, A7G
initial rate of degradation by hexYme1p (min^−1 enz6^−1) (hexYme1p (S. cerevisiae) [2]): 0.11

B6: hexYme1p (enzyme, S. cerevisiae)
chain: T1 sequence
stoichiometry N (SEC): 6

More lines, now with the values ahead:

initial rate of degradation of 20 μM substrate by hexYme1p (min^−1 enz6^−1) (hexYme1p (S. cerevisiae) [1]): 0.33
Molecule: T12-λcI^N (from UniProt P32830 1-15)

initial rate of degradation of 20 μM substrate by hexYme1p (min^−1 enz6^−1) (hexYme1p (S. cerevisiae) [1]): 0.22
Molecule: T13-λcI^N (from UniProt P53299 1-13)

initial rate of degradation of 20 μM substrate by hexYme1p (min^−1 enz6^−1) (hexYme1p (S. cerevisiae) [1]): 0.7
Molecule: T10-λcI^N (from UniProt P87108 1-15)

initial rate of degradation by hexYme1p (min^−1 enz6^−1) (hexYme1p (S. cerevisiae) [2]): 0.05
B3: Tim10^2–6A (natural protein)
chain: B4 chain with F3A, F6A, A7G
